Key:
[1] = target: T1, human CEACAM5-his (ACRO CE5-H5226) (human, UniProt P06731 35-685); assay: ELISA on coated human CEACAM5, OD450
T1 construct: Bought protein; not shown: His tag
T1 sequence (looked up): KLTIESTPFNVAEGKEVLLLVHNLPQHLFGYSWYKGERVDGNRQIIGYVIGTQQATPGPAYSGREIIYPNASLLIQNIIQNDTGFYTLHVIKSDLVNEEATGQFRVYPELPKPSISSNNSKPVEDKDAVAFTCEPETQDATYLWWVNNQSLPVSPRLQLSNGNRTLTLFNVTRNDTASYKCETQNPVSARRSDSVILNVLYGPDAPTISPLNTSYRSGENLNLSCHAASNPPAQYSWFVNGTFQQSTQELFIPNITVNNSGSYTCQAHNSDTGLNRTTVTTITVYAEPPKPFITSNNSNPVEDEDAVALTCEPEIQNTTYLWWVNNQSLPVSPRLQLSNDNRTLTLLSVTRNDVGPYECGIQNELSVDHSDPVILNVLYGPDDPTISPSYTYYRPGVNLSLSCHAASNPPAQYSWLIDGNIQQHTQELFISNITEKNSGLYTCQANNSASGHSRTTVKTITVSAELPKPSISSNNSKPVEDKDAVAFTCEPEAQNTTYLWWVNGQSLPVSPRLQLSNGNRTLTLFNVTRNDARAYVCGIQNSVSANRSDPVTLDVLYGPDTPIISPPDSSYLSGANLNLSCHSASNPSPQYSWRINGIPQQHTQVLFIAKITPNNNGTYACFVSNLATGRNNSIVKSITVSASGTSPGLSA
Experimental: (§1) The binding activity of the antibodies to human CEACAM5, human CEACAM6, and human CEACAM6 (AB) proteins was detected by ELISA. The plate coated with proteins was incubated at 4° C. overnight, and the 96-well ELISA plate blocked with 2% PBS-BSA was added with the antibody to be detected and incubated at 37° C. for 1 h. After washing 3 times with PBS containing 0.05% Tween, the absorbance value of each well was read at wavelength 450 nm with the gradient-diluted mouse-derived candidate antibody as the primary antibody and anti-mouse-IgG-FC-HRP as the secondary antibody, and the absorbance value of each well was read at wavelength 450 nm after the TMB color development.

[2] = target: T2, Human-CEACAM6 (AB)-His (human, UniProt P40199 145-314); assay: ELISA on coated human CEACAM6 (AB), OD450
T2 construct: Made in house, purified on a nickel column
T2 sequence (P40199 other isoform, or with tags, fused parts or gaps limits assumed): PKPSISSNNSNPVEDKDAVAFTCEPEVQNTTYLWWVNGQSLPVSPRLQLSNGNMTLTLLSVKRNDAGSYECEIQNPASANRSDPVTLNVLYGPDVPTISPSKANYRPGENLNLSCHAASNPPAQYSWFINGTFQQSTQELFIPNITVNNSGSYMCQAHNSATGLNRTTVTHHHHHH
Experimental: as §1

[3] = target: T3, CEACAM6 on the surface of the tumor cells (HPAFII cells) (UniProt P40199 35-320); assay: flow cytometry on HPAFII cells (Mean-FITC); the cells carry CEACAM5 and CEACAM6, signal not divided between the two
T3 construct: whole, on cells
T3 sequence (looked up): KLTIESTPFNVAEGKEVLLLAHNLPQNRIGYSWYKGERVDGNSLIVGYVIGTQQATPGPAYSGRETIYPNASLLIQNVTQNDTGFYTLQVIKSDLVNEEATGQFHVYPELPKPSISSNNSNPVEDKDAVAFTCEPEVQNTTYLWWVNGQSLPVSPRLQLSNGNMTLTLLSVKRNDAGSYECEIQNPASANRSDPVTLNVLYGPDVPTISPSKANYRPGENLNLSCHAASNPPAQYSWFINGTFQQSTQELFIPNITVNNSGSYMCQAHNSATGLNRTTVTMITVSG
Experimental: (§2) The antibody to be tested was taken as the initial concentration of 200 nM and diluted 5-fold with 6 gradients. The HPAFII cells (From USTC […] FOR ADVANCED STUDIES) in the incubator were taken out, and the cell suspension was transferred to a 15 mL centrifuge tube, centrifuged, and counted by resuspension in PBS. A blank control group (Blank), a negative control group (NC), an experimental group, a positive control group and the irrelevant antibody group were kept. […] The cell suspension was spread in a 96-well plate according to about 3×10⁵ cells/well. Centrifugation (1000 rpm, 5 min) was performed, followed by washing with PBS, re-centrifugation, and repeated twice to remove media residues. The supernatant was discarded, 100 μL of primary antibody solution and irrelevant antibody solution were added to the experimental group and irrelevant antibody group, respectively, and the cells were resuspended and incubated at room temperature for 1 h. The blank group, and the negative control group were incubated with an equal amount of PBS.
(§3) After 1 h, PBS was added to wash twice. After the supernatant was discarded, 100 μL of fluorescent secondary antibody dilution (Mouse-derived secondary antibody from Abcam ab6785) was added to each sample group, except for the blank group which was added with 100 μL of PBS. After incubation at room temperature and protected from light for 0.5 h, centrifugation was performed and PBS added to wash the samples twice. After the supernatant was discarded, 120 μL of PBS was added to resuspend and sequentially flow cytometry was performed to detect the mean fluorescence intensity. The concentration of the antibody was logarithmically taken as the horizontal coordinate, and the Sigmoidaldose-response (VariableSlope) method (GraphPadPrism Software, GraphPadSoftware, San Diego, California) was chosen to perform a nonlinear regression to obtain the binding activity curves of the antibody on HPAFII cells.

[4] = target: T4, CEACAM5 on the surface of the tumor cells (HPAFII cells) (UniProt P06731 35-685); assay: as above
T4 construct: whole, on cells
T4 sequence (looked up): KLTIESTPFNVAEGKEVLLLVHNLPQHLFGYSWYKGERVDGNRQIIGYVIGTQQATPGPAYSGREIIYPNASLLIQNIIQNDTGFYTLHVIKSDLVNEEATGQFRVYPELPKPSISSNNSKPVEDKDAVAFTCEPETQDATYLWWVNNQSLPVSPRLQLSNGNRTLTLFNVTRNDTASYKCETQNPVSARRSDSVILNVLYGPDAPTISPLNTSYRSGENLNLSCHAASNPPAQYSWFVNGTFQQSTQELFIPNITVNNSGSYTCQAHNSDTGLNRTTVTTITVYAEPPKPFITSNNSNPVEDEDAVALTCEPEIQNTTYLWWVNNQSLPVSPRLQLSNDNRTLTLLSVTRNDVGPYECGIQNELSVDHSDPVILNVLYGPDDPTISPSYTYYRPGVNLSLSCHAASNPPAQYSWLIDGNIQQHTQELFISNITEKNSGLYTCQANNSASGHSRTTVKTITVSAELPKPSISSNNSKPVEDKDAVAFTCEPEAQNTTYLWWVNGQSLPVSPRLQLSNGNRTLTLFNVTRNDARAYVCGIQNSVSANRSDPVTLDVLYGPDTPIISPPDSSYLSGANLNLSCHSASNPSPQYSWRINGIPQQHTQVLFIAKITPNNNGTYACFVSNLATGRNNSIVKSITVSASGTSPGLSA
Experimental: as §2, §3

[5] = target: T2, Human-CEACAM6 (AB)-His; assay: SPR (Biacore), antibody captured on CM5 chip, antigen as analyte, 1:1 model
Experimental: (§4) The CM5 sensor chip was activated at a flow rate of 10 μL/min for 420 seconds. The channel was then injected with 30 μg/mL of anti-rat Fc IgG in 10 mM NaAc (pH 4.5) at a flow rate of 10 μL/min. The chip was inactivated with 1 M ethanolamine-hydrochloric acid (GE) for 420 seconds at a flow rate of 10 μL/min.
(§5) Candidate antibodies in running buffer 1×HBS-EP+ (10 mM HEPES, 150 mM NaCl, 3 mM EDTA, 0.05% Tween 20, pH 7.4) were captured onto Fc2 with anti-rat Fc IgG at a flow rate of 10 μL/min. The 10 nM human CEACAM5-his protein or CEACAM-6-his or CEACAM6 (AB)-his protein and running buffer were sequentially injected into Fc1-Fc2 at a flow rate of […], bound for 180 seconds, and then dissociated for 3600 seconds. 10 mM glycine (pH 1.5) was injected as regeneration buffer after each dissociation.
(§6) Result plots for the reference channel Fc1 and the buffer channel were subtracted from the test result plots. The experimental data fit the 1:1 binding model. The molecular weight of 110 KDa was used to calculate the molar concentration of CEACAM5 protein, 55 KDa for human CEACAM6-his, and 55 KDa for human CEACAM6 (AB)-his.

[6] = target: T1, human CEACAM5-his (ACRO CE5-H5226); assay: as above
Experimental: as §4, §5, §6

[7] = target: T5, human CEACAM6-his (ACRO CE6-H5223) (human, UniProt P40199 35-320); assay: as above
T5 construct: Bought protein; not shown: His tag
T5 sequence (looked up): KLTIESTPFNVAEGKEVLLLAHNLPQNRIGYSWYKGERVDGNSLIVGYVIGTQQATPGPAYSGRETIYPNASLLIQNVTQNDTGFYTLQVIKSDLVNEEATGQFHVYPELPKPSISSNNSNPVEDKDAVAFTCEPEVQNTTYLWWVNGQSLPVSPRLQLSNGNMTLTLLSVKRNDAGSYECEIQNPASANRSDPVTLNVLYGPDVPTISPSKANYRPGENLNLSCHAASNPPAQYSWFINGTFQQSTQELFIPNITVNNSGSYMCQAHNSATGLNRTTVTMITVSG
Experimental: as §4, §5, §6

Row | Binder | EC50 (read off the curve) [1] [µg/mL] | EC50 (read off the curve) [2] [µg/mL] | EC50 (read off the curve) [3] [nM] | EC50 (read off the curve) [4] [nM] | Kd [5] [nM] | Kd [6] [nM] | Kd [7] [nM]
1 | Antibody 9 (antibody, V domains shown, Mouse-derived hybridoma antibody; also called mouse-derived antibody 9) VH: EVKLVESGGGLVQPGGSLRLSCATSEITFIDYYMSWVRQPPGKALEWLGLIRNKANGYTTEYSESVKGRFTISRDKSQSILYLQMNTLRVEDSATYYCARDPGINWYFDVWGAGTTVTVSS VL: QNILSQSPTILSASPGEKVTMTCRASSSVSYMHWYQQKPGSSPKPWIYATSNLASGVPARFSGSGSGTSYSLTISRVEAEDVAIYFCQRWGYNPPTFGAGTKLELK | ~0.02 | ~0.01 | ~6 | ~6 |  |  | 
2 | Antibody B (antibody, human IgG1, kappa, V domains shown, Humanized form of mouse-derived antibody 2 on a human IgG framework; also called humanized antibody B) VH: EVQLVESGGGLVQPGGSLRLSCAASEFTLIDYYMSWVRQAPGKGLEWVGYIRNKVNGHTTDYIASVKGRFTISRDDSKNSLYLQMNSLKTEDTAVYYCARDPGINWYFDVWGQGTLVTVSS VL: EIVLTQSPATLSLSPGERATLSCRASSRVTYMHWYQQKPGQSPRPLISATSNLASGIPARFSGSGSGTDYTLTISSLEPEDFAVYYCQQWSYNPPTFGGGTKLELKR |  |  |  |  | 117 | < 0.001 | 19.7
